The target of the assay is PKB-sub peptide (GSK3 consensus peptide) …. The assay can be described thus: cell-based or functional assay.

In turn, “GST-SGK2 fusion protein (human SGK2 with N-terminal Glutathione S-transferase tag, expressed in Hi5 insect cells) (from UniProt Q9HBY8 1-367) (enzyme)” gave a kinase activity, 32P incorporation; GST-SGK2 from Hi5 cells treated with Calyculin A of 92500 CCPM1; a kinase activity, 32P incorporation; GST-SGK2 from Hi5 cells treated with Microcysteine of 217 CCPM1; a kinase activity, 32P incorporation; GST-SGK2 from Hi5 cells treated with Okadaic Acid of 132000 CCPM1; a kinase activity, 32P incorporation; GST-SGK2 from untreated Hi5 cells of 979 CCPM1.

These data come from patent US20020123056A1.
